# Target: T1, L1-CAM recombinant protein (His Tag), human (human, UniProt P32004 20-1120)
# T1 construct: Bought protein; also called CD171; human L1-CAM; not shown: His tag
# Assay: ELISA, human L1-CAM coated at 2 µg/ml
# T1 sequence (P32004 20-1120 limits assumed): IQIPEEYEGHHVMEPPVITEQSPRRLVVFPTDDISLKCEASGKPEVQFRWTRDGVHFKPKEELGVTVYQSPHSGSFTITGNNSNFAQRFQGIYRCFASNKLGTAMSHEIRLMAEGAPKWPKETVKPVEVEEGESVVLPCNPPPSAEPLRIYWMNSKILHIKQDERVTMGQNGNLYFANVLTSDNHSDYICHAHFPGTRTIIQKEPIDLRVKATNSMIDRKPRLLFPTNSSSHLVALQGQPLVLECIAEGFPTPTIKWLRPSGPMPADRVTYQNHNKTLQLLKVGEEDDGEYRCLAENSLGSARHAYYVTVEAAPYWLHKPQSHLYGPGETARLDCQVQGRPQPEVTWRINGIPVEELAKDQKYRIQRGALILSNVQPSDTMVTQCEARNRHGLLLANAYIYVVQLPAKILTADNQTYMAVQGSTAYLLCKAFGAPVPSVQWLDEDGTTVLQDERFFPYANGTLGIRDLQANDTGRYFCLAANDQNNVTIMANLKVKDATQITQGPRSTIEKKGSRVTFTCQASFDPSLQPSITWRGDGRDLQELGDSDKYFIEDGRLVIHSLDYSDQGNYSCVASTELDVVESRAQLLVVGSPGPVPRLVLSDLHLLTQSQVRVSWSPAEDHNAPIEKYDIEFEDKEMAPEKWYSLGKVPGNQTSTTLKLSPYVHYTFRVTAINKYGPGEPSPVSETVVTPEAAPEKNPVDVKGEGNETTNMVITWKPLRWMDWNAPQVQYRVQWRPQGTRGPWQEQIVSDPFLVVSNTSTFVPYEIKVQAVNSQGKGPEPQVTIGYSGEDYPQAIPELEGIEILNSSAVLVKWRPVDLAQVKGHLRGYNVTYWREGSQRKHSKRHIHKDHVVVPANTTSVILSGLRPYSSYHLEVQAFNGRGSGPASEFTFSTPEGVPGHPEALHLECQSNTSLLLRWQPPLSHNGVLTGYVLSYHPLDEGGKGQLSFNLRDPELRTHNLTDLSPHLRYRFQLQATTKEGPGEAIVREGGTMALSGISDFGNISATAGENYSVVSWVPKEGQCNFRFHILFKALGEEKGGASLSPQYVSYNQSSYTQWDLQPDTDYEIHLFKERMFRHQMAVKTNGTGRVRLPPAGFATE
row,Binder,EC50 [µg/mL]
1,"CE7-variant11 (antibody, V domains shown, Human IgG1 kappa, L234A L235A P331S; also called CE7-12-VHB-315-VLA; humanized variant 11) VH: QVQLVQSGAEVKKPGASVKVSCKASGYTFTGYWMHWVRQAPGQGLEWIGEINPSNGRTNYNERFQGRVTLTVDKSISTAYMELSRLRSDDTAVYYCARDYYGTSYNFDYWGQGTLVTVSS VL: EIVMTQSPATLSVSPGERATLSCKANEDINNRLAWYQQKPGQAPRLLISGATNLVTGIPARFSGSGSGKEYTLTISSLQSEDFAVYYCQQYWSTPFTFGQGTKLEIKR",0.0148
2,"CE7-variant12 (antibody, V domains shown, Human IgG1 kappa, L234A L235A P331S; also called CE7-12-VHB-315-VLB; humanized variant 12) VH: QVQLVQSGAEVKKPGASVKVSCKASGYTFTGYWMHWVRQAPGQGLEWIGEINPSNGRTNYNERFQGRVTLTVDKSISTAYMELSRLRSDDTAVYYCARDYYGTSYNFDYWGQGTLVTVSS VL: EIVMTQSPATLSVSPGERATLSCRANEDINNRLAWYQQKPGQAPRLLISGATNLVTGIPARFSGSGSGKEFTLTISSLQSEDFAVYYCQQYWSTPFTFGQGTKLEIKR",0.0126
3,"LV1 (antibody, V domains shown, CE7-VH-chimeric-WH33Y + CE7-VL-chimeric; chimeric CE7, human IgG1 kappa, L234A L235A P331S N297A; also called liability variant 1) VH: QVQLQQPGAELVKPGASVKLSCKASGYTFTGYYMHWVKQRPGHGLEWIGEINPSNGRTNYNERFKSKATLTVDKSSTTAFMQLSGLTSEDSAVYFCARDYYGTSYNFDYWGQGTTLTVSS VL: DIQMTQSSSSFSVSLGDRVTITCKANEDINNRLAWYQQTPGNSPRLLISGATNLVTGVPSRFSGSGSGKDYTLTITSLQAEDFATYYCQQYWSTPFTFGSGTELEIKR",0.0362
4,"CE7-variant18 (antibody, Human IgG1 kappa, L234A L235A P331S; also called CE7-434-VHA-315-VLB; humanized variant 18) heavy: QVQLQQWGAGLLKPSETLSLTCAAYGYTFTGYWMHWIRQPPGKGLEWIGEINPSNGRTNYNERLKSRVTLSVDKSKNQASLKLSSVTAADTAVYFCARDYYGTSYNFDYWGQGTLVTVSSASTKGPSVFPLAPSSKSTSGGTAALGCLVKDYFPEPVTVSWNSGALTSGVHTFPAVLQSSGLYSLSSVVTVPSSSLGTQTYICNVNHKPSNTKVDKKVEPKSCDKTHTCPPCPAPEAAGGPSVFLFPPKPKDTLMISRTPEVTCVVVDVSHEDPEVKFNWYVDGVEVHNAKTKPREEQYNSTYRVVSVLTVLHQDWLNGKEYKCKVSNKALPASIEKTISKAKGQPREPQVYTLPPSREEMTKNQVSLTCLVKGFYPSDIAVEWESNGQPENNYKTTPPVLDSDGSFFLYSKLTVDKSRWQQGNVFSCSVMHEALHNHYTQKSLSLSPGK light: not shown",0.00968
5,"CE7-variant13 (antibody, V domains shown, Human IgG1 kappa, L234A L235A P331S; also called CE7-434-VHA-1NL1-VLA; humanized variant 13) VH: QVQLQQWGAGLLKPSETLSLTCAAYGYTFTGYWMHWIRQPPGKGLEWIGEINPSNGRTNYNERLKSRVTLSVDKSKNQASLKLSSVTAADTAVYFCARDYYGTSYNFDYWGQGTLVTVSS VL: DIQMTQSPSSLSASVGDRVTITCKANEDINNRLAWYQQKPGKAPKLLISGATNLVTGVPSRFSGSGSGKDYTLTISSLQPEDFATYYCQQYWSTPFTFGQGTKLEIKR",0.05
6,"CE7-variant14 (antibody, V domains shown, Human IgG1 kappa, L234A L235A P331S; also called CE7-434-VHA-1NL1-VLB; humanized variant 14) VH: QVQLQQWGAGLLKPSETLSLTCAAYGYTFTGYWMHWIRQPPGKGLEWIGEINPSNGRTNYNERLKSRVTLSVDKSKNQASLKLSSVTAADTAVYFCARDYYGTSYNFDYWGQGTLVTVSS VL: DIQMTQSPSSLSASVGDRVTITCRANEDINNRLAWYQQKPGKAPKLLISGATNLVTGVPSRFSGSGSGKDYTLTISSLQPEDFATYYCQQYWSTPFTFGQGTKLEIKR",0.0157
7,"CE7-variant15 (antibody, V domains shown, Human IgG1 kappa, L234A L235A P331S; also called CE7-434-VHA-133-VLA; humanized variant 15) VH: QVQLQQWGAGLLKPSETLSLTCAAYGYTFTGYWMHWIRQPPGKGLEWIGEINPSNGRTNYNERLKSRVTLSVDKSKNQASLKLSSVTAADTAVYFCARDYYGTSYNFDYWGQGTLVTVSS VL: DIQMTQSPSSLSASVGDRVTITCKANEDINNRLAWYQQKPGKAPKLLISGATNLVTGVPSRFSGSGSGKDYTLTISSLQPEDIATYYCQQYWSTPFTFGQGTKLEIKR",0.0112

# Results, then the binder that gave them:
row,EC50 [µg/mL],Binder
1,0.0318,"LV5 (antibody, V domains shown, CE7-VH-chimeric + CE7-VL-chimeric-NL31L; chimeric CE7, human IgG1 kappa, L234A L235A P331S N297A; also called liability variant 5) VH: QVQLQQPGAELVKPGASVKLSCKASGYTFTGYWMHWVKQRPGHGLEWIGEINPSNGRTNYNERFKSKATLTVDKSSTTAFMQLSGLTSEDSAVYFCARDYYGTSYNFDYWGQGTTLTVSS VL: DIQMTQSSSSFSVSLGDRVTITCKANEDINLRLAWYQQTPGNSPRLLISGATNLVTGVPSRFSGSGSGKDYTLTITSLQAEDFATYYCQQYWSTPFTFGSGTELEIKR"
2,0.0328,"LV3 (antibody, V domains shown, CE7-VH-chimeric-WH33L + CE7-VL-chimeric; chimeric CE7, human IgG1 kappa, L234A L235A P331S N297A; also called liability variant 3) VH: QVQLQQPGAELVKPGASVKLSCKASGYTFTGYLMHWVKQRPGHGLEWIGEINPSNGRTNYNERFKSKATLTVDKSSTTAFMQLSGLTSEDSAVYFCARDYYGTSYNFDYWGQGTTLTVSS VL: DIQMTQSSSSFSVSLGDRVTITCKANEDINNRLAWYQQTPGNSPRLLISGATNLVTGVPSRFSGSGSGKDYTLTITSLQAEDFATYYCQQYWSTPFTFGSGTELEIKR"
3,0.0268,"LV6 (antibody, V domains shown, CE7-VH-chimeric + CE7-VL-chimeric-NL31A; chimeric CE7, human IgG1 kappa, L234A L235A P331S N297A; also called liability variant 6) VH: QVQLQQPGAELVKPGASVKLSCKASGYTFTGYWMHWVKQRPGHGLEWIGEINPSNGRTNYNERFKSKATLTVDKSSTTAFMQLSGLTSEDSAVYFCARDYYGTSYNFDYWGQGTTLTVSS VL: DIQMTQSSSSFSVSLGDRVTITCKANEDINARLAWYQQTPGNSPRLLISGATNLVTGVPSRFSGSGSGKDYTLTITSLQAEDFATYYCQQYWSTPFTFGSGTELEIKR"
4,0.0459,"LV2 (antibody, V domains shown, CE7-VH-chimeric-WH33F + CE7-VL-chimeric; chimeric CE7, human IgG1 kappa, L234A L235A P331S N297A; also called liability variant 2) VH: QVQLQQPGAELVKPGASVKLSCKASGYTFTGYFMHWVKQRPGHGLEWIGEINPSNGRTNYNERFKSKATLTVDKSSTTAFMQLSGLTSEDSAVYFCARDYYGTSYNFDYWGQGTTLTVSS VL: DIQMTQSSSSFSVSLGDRVTITCKANEDINNRLAWYQQTPGNSPRLLISGATNLVTGVPSRFSGSGSGKDYTLTITSLQAEDFATYYCQQYWSTPFTFGSGTELEIKR"
5,0.0246,"LV7 (antibody, V domains shown, CE7-VH-chimeric + CE7-VL-chimeric-WL92Y; chimeric CE7, human IgG1 kappa, L234A L235A P331S N297A; also called liability variant 7) VH: QVQLQQPGAELVKPGASVKLSCKASGYTFTGYWMHWVKQRPGHGLEWIGEINPSNGRTNYNERFKSKATLTVDKSSTTAFMQLSGLTSEDSAVYFCARDYYGTSYNFDYWGQGTTLTVSS VL: DIQMTQSSSSFSVSLGDRVTITCKANEDINNRLAWYQQTPGNSPRLLISGATNLVTGVPSRFSGSGSGKDYTLTITSLQAEDFATYYCQQYYSTPFTFGSGTELEIKR"
6,0.0394,"LV4 (antibody, V domains shown, CE7-VH-chimeric-GH55A + CE7-VL-chimeric; chimeric CE7, human IgG1 kappa, L234A L235A P331S N297A; also called liability variant 4) VH: QVQLQQPGAELVKPGASVKLSCKASGYTFTGYWMHWVKQRPGHGLEWIGEINPSNARTNYNERFKSKATLTVDKSSTTAFMQLSGLTSEDSAVYFCARDYYGTSYNFDYWGQGTTLTVSS VL: DIQMTQSSSSFSVSLGDRVTITCKANEDINNRLAWYQQTPGNSPRLLISGATNLVTGVPSRFSGSGSGKDYTLTITSLQAEDFATYYCQQYWSTPFTFGSGTELEIKR"
7,0.0108,"CE7-variant17 (antibody, V domains shown, Human IgG1 kappa, L234A L235A P331S; also called CE7-434-VHA-315-VLA; humanized variant 17) VH: QVQLQQWGAGLLKPSETLSLTCAAYGYTFTGYWMHWIRQPPGKGLEWIGEINPSNGRTNYNERLKSRVTLSVDKSKNQASLKLSSVTAADTAVYFCARDYYGTSYNFDYWGQGTLVTVSS VL: EIVMTQSPATLSVSPGERATLSCKANEDINNRLAWYQQKPGQAPRLLISGATNLVTGIPARFSGSGSGKEYTLTISSLQSEDFAVYYCQQYWSTPFTFGQGTKLEIKR"
8,0.0132,"CE7-variant16 (antibody, V domains shown, Human IgG1 kappa, L234A L235A P331S; also called CE7-434-VHA-133-VLB; humanized variant 16) VH: QVQLQQWGAGLLKPSETLSLTCAAYGYTFTGYWMHWIRQPPGKGLEWIGEINPSNGRTNYNERLKSRVTLSVDKSKNQASLKLSSVTAADTAVYFCARDYYGTSYNFDYWGQGTLVTVSS VL: DIQMTQSPSSLSASVGDRVTITCQANEDINNRLAWYQQKPGKAPKLLISGATNLVTGVPSRFSGSGSGKDYTFTISSLQPEDIATYYCQQYWSTPFTFGQGTKLEIKR"

# — patent publication US20260055182A1 (CIS BIOPHARMA, published 2026)
